# Source: the supplement of paper PMC9170038
# System: K4 kissing-loop RNA reporter
# Assay: apparent KD of K4 kissing-loop reporter; higher = weaker reporter binding
# Conditions: Eterna round: R107; input ligand: FMN 200 uM
# Description: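 RNA-MaP round R107: designed RNA switches with theophylline, tryptophan, arginine or FMN aptamers are transcribed on-chip within common flanks. They are titrated with a labelled K4 kissing-loop RNA reporter in RNA-MaP buffer (100 mM Tris pH 7.5, 80 mM KCl, 4 mM MgCl2), without ligand or with the indicated ligand. Median apparent KD per design.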
# 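Also: bound reporter read as fluorescence of individual clusters on recovered sequencing chips by microscopy, with normalized cluster intensities fitted with a binding model.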
row,Sequence,apparent KD of K4 kissing-loop reporter [nM]
1,AUAGGAGUGAUGUUCCUUAGUCUCUCCGAUACCAGUAUGGAAACAUACCCUUGGCAGCGGUAGACCGCAGAUUAGGAAACUAGUC [Theophylline A K4 3],657
2,UGUAUGUGUCAGCGAGUGAUGUUCGACGAUACCAGACUCGAUAGAGUCCCUUGGCAGCGUAAUGCAUGCCAAACUGGCACAUACU [#SwitchBubble 13 #K4Early],657
3,GAGAACUCUUACGAUACCAGCCGGAGUGAUGUUCCGCGCUUGGACGUAGUAACCCGCACCGGCCCUUGGCAGCGUGGAUCCUAUG [Bibiinor],91.1
4,UAAGAUAUAAGGGAUACCAGCCAUAAGGAAAGUGUGAUGAGUGAUGUUCUGACAAGCCAAGGCCCUUGGCAGCUUUAAUAGCAUC [Theophylline B Same State; Euphoria Solution],303
5,GUAUCGCUAGGAGGAUAUUUCAAUUCGCCUAUAAUAGGUGAUACGGAGUGAUGUUCCGAUUUACGGAAAGAAGGCCUAGUGAUAC [FMN B 10],144
6,UUCAGUGAUGAUGAACACUGUUGUAUAAACUAGGAUAUGCUGAUAAGCAGAAGGAGUGAUGUUCCGUUCAUCAUCAGAAUUAAAU [KL-XFMN-A4],619
7,GGGCGUUACGGAGUGAUGUUCCGUAGCGAUACCAGCCAUUGCGAUGGCCCUUGGCAGCGCUAUAAGCAUAGAAUUGUAGCGCUUA [Theo A Ex t7b],109
8,UGACAUUGCUCAGAUACCAGACAAGAGGAUCACCCUUGUGCCAAAACGUACUAAAUAAAUGUCCCUUGGCAGCUGAGCAAUGUCU [TheoBX 13],82.5
9,AGAGUUAUGCGAGGAUAUGCAGUUAGUACUCAAAGAGUACUAACAGCAGAGUGAUGUUCUGUGAAAGCAGAAGGUGCAUAACUCA [Omei KL FMN B SS B v7],153
10,UCGUCUGUGUGAGGAUAUCCAAGCGAGCUGCGUAAAGGCGCGGCGUUUGGAGUGAUGUUCCAGGCAGGAGAAGGCGCACGGGCUU [Maleisar],231
11,UGUCAUUGGUCGGCCGCCACUUCAUAAAGAGUGAUGUUCUUAAAGACGGAUCGAAAGAUCUGUCGAAGGACCGGGACCGAUGACU [FiskerMod 8 - Jieux - Same State - Tryptophan B],1330
12,UUGGCAGUGAUGUUGCCAGAGCUCACCGAAGGAGCGCGUGAAAACGCAGGUAGGUCGCGGUAGCGGAGUGAUUCUCCGCGAGGGC [Same State Arginine A GF 21],44.5
13,UACUAUAGUGAUGUUAUAGAUAAAACAGAUACCAGUGUUACAUAACACCCUUGGCAGCUGAAAAGGGAAAGUAUAAAUGUGUAUU [AstrosSSTHe-A#1newdesignED],156
14,UGGACCAAGGAGUGAUGUUCCAAAUGUGAUACCAGCCACGAAAGUGGCCCUUGGCAGCACUGCCAGGACGAAAACGUCCGGUCCU [#SwitchBubble 12 #StaticStem #K4Early],358
15,GAUCUAUGUCCCGAUACCAGCUCAGAAGCUAGGGAGUGAUGUUCUCGGAGGUUAUCACUGAGCCCUUGGCAGCGGAACGUGACGA [theeternabot_sameState_KL_Theo_B_26],227
16,AAAAUUGCGGUUUUAAGAUCUUUUUGCUUACGAGGACCGGUACGGCCGCCACUCGAGUCAAGUGAUGUUUGAUUUUCUAUUAUUA [JR_ExcTryptoA_Sub015],92.4
17,UUGGCCGGACGGGAUACCAGUCAAAUCGUGUGCUUGGGAUGUCUAAGAGCCAGUGAUGUUGGCCCUUGGCAGCCCUCCCAGCUUG [Esleaqu],111
18,UAGAUGUUGUAAGAUAUUGAUAGUCGGGAAGGAGCGCUCACAAUAGCAGGUAGGUCGCCCGACAGUGUUAGGAGUGAUGUUCCUU [7.)],92.9
19,CCCUAAAUAUGCAGUGAUGUUGCAACUGAUACCAGUAUCGAAAGAUACCCUUGGCAGCGGAAAACCGCUACGUAAUUUAAUAGGG [Ex Theophylline A K4 20],294
20,GGGAGCAAAGCUCCCGGAUGCUAUUACCAGGAGGAUAUCUGGAAACAGAGAAGGCCUAAGCCAGUGAUGUUGGUUUCGAGCAUCC,184
21,GGUGACAACCAGGAGUGAUGUAUAGAAUAGCGAGGACCGGUACGGCCGCCACUCGUGAAGAGAAAGGAGUGAUGUUCCGUAAUGG [Kazoo C3],129
22,GUAGGAUGAGGAGGAGGAAGAAAUACUGAAGGAGCGCAAAGAAAUGCAGGUAGGUCGCGGUAAAGAAGUAUAGUGAUGUUAUAUA [SSArgA.C],452

row,Sequence,apparent KD of K4 kissing-loop reporter [nM]
1,UCAUAUACCAGAAGGAGCGUGCAGGACGAAUUAAUCAUCGACCUUAGUGAUGUUAAGGACGCACAGGUAGGUCGCUGGUAUAUGA [Arg B SS t4],444
2,UGCAUGCUUGUAGUGAUGUUACAAGAUGAUACCAGUGCUUUUUUGCACCCUUGGCAGCGUCAUAGUGCAUGCACGUCGAAAGACG,219
3,AAACGUUGGUCUGAUACCAGCUUGAUCGGUAAACGAUCUACUGGAGUGAUGUUCCUAAAUAGCCCUUGGCAGCAGACCGACGAAA [MAT - Same State Theophlline B - Mod of Eli - D7],195
4,UAUCUUUGCUGAAGGAGCGAGCAUGUUGGAGUGAUGUUCCGAGCGAGUGAUGUUCGCAUAGCUCAGGUAGGUCGCAGUGGGAGGA [Same State Arginie B GF 16],129
5,UGAUACCAGACGGCCGCCACUGGUGCAGUCAAAGACUGCUAAAACCAAAUCGUGGAGUGAUGUUCCAGGACCGGGUCUGGUAUCU [TrypBX 20 #SwitchBubble #Palindromic #StaticStem],451
6,CACGGUUAUACGGCCGCCACUGAUUGCGUUGCAGUGAUGUUGCACGCGUCCGACUACACCUCAUUCAGGACCGGGUAGACAUGCA [theeternabot_exclusion_KL_Trp_B_11],238
7,CUGGUGCUGAUGCGGUGGCCGGUGGUCGUGCGAGGACCGGUACGGCCGCCACUCGCAUGAGUGAUGUUCAUGUGUCGUCGUCGUC [whbob_EX_Tryp_A_t1],212
8,GUAAGAUGAGGAGGAGGAUGAAUUACUGAAGGAGCGCAUAUAAAUGCAGGUAGGUCGCGGUAAAGAAGUAUAGUGAUGUUAUAUA [#20 K4 Arginine A Same State],452
9,GCAGUGAUGUUGCGCAGGUACAGUGGAGUGCGAGGACCGGUACGGCCGCCACUCGUACAGAACUAGCUAAUGUAUGGAUAGGUGA [#11 K4 Tryptophan A Same State],354
10,AAAAUAAACCAGUGAUGUUGGUGUCCAGAUACCAGCGAUAAUCAUCGCCCUUGGCAGCUGCGGACGUACAAAAUAAGUACGUCCU [MatMod 12 - Jieux - Same State - Theophylline A],665
11,UUUCGUCUCUGAGGAUAUCAGAAUAGAGUGAUGUUCUAUCAAAGCCCAGUGAUGUUGGAUGCUAUCUGAGAAGGCAGUGGGCGAG [Same State FMN B GF 11],196
12,AAGUCACAGGCAGGAUAUGCUUAGUAAUAAGGCCAUAUAUACGUAUAGAGUGAUGUUUUGUACCAGGCAGAAGGGCUACAUCCGU [FMN B Excl V3 (+2GCs)],876
13,AUUUUGGUUUAGAGUGAUGUUCCUUGUAUUCGAGGACCGGUACGGCCGCCACUCGAAUAGAAAAGAAAAGAAAUGUUUGAUUUUU [BDazzled - #7 SS Tryptophan A],406
14,ACGAUCAUGUCGGCCGCCACUGAGAGUAGUGAUGUUACUUUUAUGUUUUAGUUAUAAUAUUUGAACAGGACCGGGACAUGUUCGU [JR_ExcTryptoB_Sub023],103
15,UGAUAGGACAGAAGGAGCGGUAGUGAUGUUGCCAAAAGAAUAAGGUGUCAAAAGACACCCUGCCAGGUAGGUCGCUGUCCUAUCU,139
16,AAAACGCUGUGAAUAACACAGCGAAAUUCGCGAGGACCGGUACGGCCGCCACUCGCUAACUGCGAGUGAUGUUCGAUAAUAAAAU [Mat - Mod of OpenEnded 3 - D3],166
17,CAUACGCAUGGAGGAUAUGGGAUUUCUCAUAUUAACCUGUAUCAGGUAUCUCAGUGAUGUUGAGACUCAGAAGGCCAUGUGUAUG [Ex FMN B 25],494
18,ACCAUUUUACCGGCAGUAGUGAUGUUACUCCGAGGACCGGUACGGCCGCCACUCGCGAACGUAGGGUCGCGCACUCAAAGAGUGC,100
19,AACAGCAAUGCGGCCGCCACUUCGAGGUCAGUGAUGUUGACGGAAUUAAAUAAAGAUCCCAAGAGGAGGACCGGGCAGUGCUGUU [whbob_SS_Tryp_B_t25],468
20,AAAACUCCGGGUAGUGAUGUUACCUAGGAUACCAGUAUCGCAACAUACCCUUGGCAGCCUCUUCCUGCUGGCGUCGCUUGGCCUA [theeternabot_exclusion_KL_Theo_A_42],95.2
21,UAACCUGUAAACGAUACCAGUUGCAUGGAAACUUGGUACUAGCUAGUGAUGUUAGCAAGCAACCCUUGGCAGCGUCGCCUGACAG [theeternabot_sameState_KL_Theo_B_17],308

# Same assay, conditions: Eterna round: R107; input ligand: arginine 13.2 mM
row,Sequence,apparent KD of K4 kissing-loop reporter [nM]
1,AUAGGAGUGAUGUUCCUUAGUCUCUCCGAUACCAGUAUGGAAACAUACCCUUGGCAGCGGUAGACCGCAGAUUAGGAAACUAGUC [Theophylline A K4 3],726
2,UGUAUGUGUCAGCGAGUGAUGUUCGACGAUACCAGACUCGAUAGAGUCCCUUGGCAGCGUAAUGCAUGCCAAACUGGCACAUACU [#SwitchBubble 13 #K4Early],532
3,GAGAACUCUUACGAUACCAGCCGGAGUGAUGUUCCGCGCUUGGACGUAGUAACCCGCACCGGCCCUUGGCAGCGUGGAUCCUAUG [Bibiinor],81.2
4,UAAGAUAUAAGGGAUACCAGCCAUAAGGAAAGUGUGAUGAGUGAUGUUCUGACAAGCCAAGGCCCUUGGCAGCUUUAAUAGCAUC [Theophylline B Same State; Euphoria Solution],198
5,GUAUCGCUAGGAGGAUAUUUCAAUUCGCCUAUAAUAGGUGAUACGGAGUGAUGUUCCGAUUUACGGAAAGAAGGCCUAGUGAUAC [FMN B 10],229
6,UUCAGUGAUGAUGAACACUGUUGUAUAAACUAGGAUAUGCUGAUAAGCAGAAGGAGUGAUGUUCCGUUCAUCAUCAGAAUUAAAU [KL-XFMN-A4],378
7,GGGCGUUACGGAGUGAUGUUCCGUAGCGAUACCAGCCAUUGCGAUGGCCCUUGGCAGCGCUAUAAGCAUAGAAUUGUAGCGCUUA [Theo A Ex t7b],94.1
8,UGACAUUGCUCAGAUACCAGACAAGAGGAUCACCCUUGUGCCAAAACGUACUAAAUAAAUGUCCCUUGGCAGCUGAGCAAUGUCU [TheoBX 13],42.1
9,AGAGUUAUGCGAGGAUAUGCAGUUAGUACUCAAAGAGUACUAACAGCAGAGUGAUGUUCUGUGAAAGCAGAAGGUGCAUAACUCA [Omei KL FMN B SS B v7],630
10,UCGUCUGUGUGAGGAUAUCCAAGCGAGCUGCGUAAAGGCGCGGCGUUUGGAGUGAUGUUCCAGGCAGGAGAAGGCGCACGGGCUU [Maleisar],296
